From doi:10.1101/2025.11.06.687086 (bioRxiv, 2025)

Experiments:
[1] = molecular target: T1, A/Michigan/45/2015 (H1N1) HA (Influenza A virus A/Michigan/45/2015 …, UniProt A0A1J0CXU0, strain); test: BLI; conditions: both partners purified
[2] = molecular target: T2, A/Solomon Islands/3/2006 (H1N1) HA (Influenza A virus A/Solomon …, strain); test: ELISA; conditions: one partner purified
[3] = molecular target: T3, A/Taiwan/01/1986 (H1N1) HA (Influenza A virus A/Taiwan/1/1986 (H1N1), UniProt F5CU03, strain); test: ELISA; conditions: one partner purified
T3 construct: source: bought: Sino Biological

[4] = molecular target: A/California/07/2009 (H1N1) HA (Influenza A virus A/California/07/2009 …, UniProt C3W5X2, strain); test: ELISA; conditions: one partner purified
[5] = molecular target: A/northern pintail/WA/40964/2014 (H5N8) HA (influenza A virus A/northern …, UniProt A0A0C4WPH5, strain); test: ELISA; conditions: one partner purified
[6] = molecular target: T4, A/Japan/305/1957 (H2N2) HA (Influenza A virus A/Japan/305/1957 …, UniProt P03451, strain); test: ELISA; conditions: one partner purified
T4 construct: source: Sf9, baculovirus, purified from the supernatant (Ni Sepharose excel, SEC)

[7] = molecular target: T1, A/Michigan/45/2015 (H1N1) HA; test: ELISA; conditions: one partner purified
A/USSR/90/1977 (H1N1) HA = molecular target: T5, A/USSR/90/1977 (H1N1) HA (Influenza A virus A/USSR/90/1977 (H1N1), UniProt P03453, strain); test: ELISA; conditions: one partner purified
T5 construct: source: bought: Sino Biological

[8] = molecular target: A/Beijing/262/1995 (H1N1) HA (Influenza A virus A/Beijing/262/1995 …, UniProt B4UPF7, strain); test: ELISA; conditions: one partner purified
[9] = molecular target: T2, A/Solomon Islands/3/2006 (H1N1) HA; test: cryo-EM structure; conditions: both partners purified

Measured: binding result

B1: FISW84 Fab (Fab, V domains shown)
VH: EVQLLESGGGLVQPGGSLRLSCAASGFTFSSYGMAWVRQAPGKGLEWVSFISATGLSTYFADSVKGRFTISRDTTKNTLYLQMNSLRADDTAVYFCARMRRTMIAFGGNDFWGQGTLVTVSS
VL: EVVMTQSPATLSVSPGEGATLSCRASQSVNTNVAWYQQKPGQAPRLLIYGASTRATGIPARFSGSGSGTEFTLTISTLQSEDFAVYYCQQYSNWPPITFGQGTRLEIK
notes: also called anchor Fab FISW84
binds: [1]

B2: HB315 IgG (antibody, V domains shown)
VH: EVQLLESGGGLAQPGGSLRLSCTASGFTFSNFAMNWVRQAPGKGLEWVSFINSGSGSTYYADSVKGRFTISRDNSENTLFLQMNSLRAEDTAVYYCAKDLGRAIFGLVIPEGAFDIWGQGTMVTVSS
VL: EIVMTQSPSSLSASVGDRVTITCRASQSINNHLNWYQQKPGKAPKLLIYAASSLQSGVPSRFSGSGSGTDFTLTISSLQPADFATYHCQQSYGVPLTFGQGTKVEIK
binds: [2] | [3] | [4] | [5] | [6] | [7] | A/USSR/90/1977 (H1N1) HA | [8]

B3: HB315 Fab (Fab, V domains shown)
VH: EVQLLESGGGLAQPGGSLRLSCTASGFTFSNFAMNWVRQAPGKGLEWVSFINSGSGSTYYADSVKGRFTISRDNSENTLFLQMNSLRAEDTAVYYCAKDLGRAIFGLVIPEGAFDIWGQGTMVTVSS
VL: EIVMTQSPSSLSASVGDRVTITCRASQSINNHLNWYQQKPGKAPKLLIYAASSLQSGVPSRFSGSGSGTDFTLTISSLQPADFATYHCQQSYGVPLTFGQGTKVEIK
binds: [9] | [1]

B4: HB31 IgG (antibody, V domains shown)
VH: EVQLLESGGGLVQPGGSLRLSCTVSGFTSSNYDMSWVRQAPGKGLEWVSGISGTGRDTYYADSVKGRFTISRDNSKNTLSLQMNSLRADDTAVYFCARDRPVLRYFDWQPYGLDVWGKGTTVTVSS
VL: QSALTQPPSASGSPGQSVTISCTGTSSDVGGYNYVSWYQQYPSKAPKLMIYEVSKRPSGVPDRFSGSKSGNTASLTVSGLQAEDEADYYCNSYAGSNLYVFGTGTKVTVL
binds: [2] | [3] | [4] | [5] | [6] | [7] | A/USSR/90/1977 (H1N1) HA | [8]

B5: HB34 Fab (Fab, V domains shown)
VH: EVQLLESGGGLVQPGGSLRLSCTVSGFTSSNYDMSWVRQAPGKGLEWVSGISGTGRDTYYADSVKGRFTISRDNSKNTLSLQMNSLRADDTAVYFCARDRPVLRYFDWQPYGLDVWGKGTTVTVSS
VL: QSALTQPASVSGSPGQSITISCTGTSSDVGSYNLVSWYQQHPGKAPKLMIYEGSQRPSGVSNRFSGSKSGNTASLTISGLQAEDEADYYCCSYASSTSYVFGTGTKVTVL
binds: [9] | [1]

B6: HB34 IgG (antibody, V domains shown)
VH: EVQLLESGGGLVQPGGSLRLSCTVSGFTSSNYDMSWVRQAPGKGLEWVSGISGTGRDTYYADSVKGRFTISRDNSKNTLSLQMNSLRADDTAVYFCARDRPVLRYFDWQPYGLDVWGKGTTVTVSS
VL: QSALTQPASVSGSPGQSITISCTGTSSDVGSYNLVSWYQQHPGKAPKLMIYEGSQRPSGVSNRFSGSKSGNTASLTISGLQAEDEADYYCCSYASSTSYVFGTGTKVTVL
binds: [2] | [3] | [4] | [5] | [6] | [7] | A/USSR/90/1977 (H1N1) HA | [8]

B7: HB31 Fab (Fab, V domains shown)
VH: EVQLLESGGGLVQPGGSLRLSCTVSGFTSSNYDMSWVRQAPGKGLEWVSGISGTGRDTYYADSVKGRFTISRDNSKNTLSLQMNSLRADDTAVYFCARDRPVLRYFDWQPYGLDVWGKGTTVTVSS
VL: QSALTQPPSASGSPGQSVTISCTGTSSDVGGYNYVSWYQQYPSKAPKLMIYEVSKRPSGVPDRFSGSKSGNTASLTVSGLQAEDEADYYCNSYAGSNLYVFGTGTKVTVL
binds: [9] | [1]

B8: CR9114 Fab (Fab, V domains shown)
VH: QVQLVQSGAEVKKPGSSVKVSCKSSGGTSNNYAISWVRQAPGQGLDWMGGISPIFGSTAYAQKFQGRVTISADIFSNTAYMELNSLTSEDTAVYFCARHGNYYYYSGMDVWGQGTTVTVSS
VL: QSALTQPPAVSGTPGQRVTISCSGSDSNIGRRSVNWYQQFPGTAPKLLIYSNDQRPSVVPDRFSGSKSGTSASLAISGLQSEDEAEYYCAAWDDSLKGAVFGGGTQLTVL
binds: [1]
